Measurements: paper PMC6279242 (Cell host & microbe, 2018)

Target: T1, GST-SIK1ΔN (Arabidopsis thaliana, UniProt O24527 249-836)
T1 sequence (looked up): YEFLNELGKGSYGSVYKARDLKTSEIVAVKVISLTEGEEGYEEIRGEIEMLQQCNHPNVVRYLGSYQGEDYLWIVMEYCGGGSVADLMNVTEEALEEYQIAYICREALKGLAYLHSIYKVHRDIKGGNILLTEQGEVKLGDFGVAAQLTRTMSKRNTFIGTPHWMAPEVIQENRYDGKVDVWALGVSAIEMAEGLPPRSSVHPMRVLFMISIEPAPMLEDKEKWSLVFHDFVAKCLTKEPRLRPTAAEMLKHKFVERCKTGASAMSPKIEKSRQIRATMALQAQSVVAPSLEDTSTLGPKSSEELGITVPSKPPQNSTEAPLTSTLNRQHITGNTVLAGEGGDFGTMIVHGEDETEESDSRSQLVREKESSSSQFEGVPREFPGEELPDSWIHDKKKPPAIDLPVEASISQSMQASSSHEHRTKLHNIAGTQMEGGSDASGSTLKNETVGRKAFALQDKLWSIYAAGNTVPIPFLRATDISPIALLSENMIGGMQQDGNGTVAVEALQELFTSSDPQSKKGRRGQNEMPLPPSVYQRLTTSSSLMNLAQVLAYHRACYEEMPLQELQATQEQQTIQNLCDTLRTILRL
Experiment: pull-down

B1: MBP-BIK1 (enzyme, Arabidopsis thaliana, UniProt O48814 1-395, looked up)
chain: MGSCFSSRVKADIFHNGKSSDLYGLSLSSRKSSSTVAAAQKTEGEILSSTPVKSFTFNELKLATRNFRPDSVIGEGGFGCVFKGWLDESTLTPTKPGTGLVIAVKKLNQEGFQGHREWLTEINYLGQLSHPNLVKLIGYCLEDEHRLLVYEFMQKGSLENHLFRRGAYFKPLPWFLRVNVALDAAKGLAFLHSDPVKVIYRDIKASNILLDADYNAKLSDFGLARDGPMGDLSYVSTRVMGTYGYAAPEYMSSGHLNARSDVYSFGVLLLEILSGKRALDHNRPAKEENLVDWARPYLTSKRKVLLIVDNRLDTQYLPEEAVRMASVAVQCLSFEPKSRPTMDQVVRALQQLQDNLGKPSQTNPVKDTKKLGFKTGTTKSSEKRFTQKPFGRHLV
  binding result: binds
